Measured values from paper PMC9036094, “Antigen-derived peptides engage the ER stress sensor IRE1α to curb dendritic cell cross-presentation” (The Journal of Cell Biology, 2022).

Assays:
IRE1α in TAP1 KO BMDCs = experiment: IRE1α activation in TAP1-disrupted BMDCs (immunoblot); type: cell-based, mouse; settings: CRISPR/Cas9 TAP1; ovalbumin 500 μg/ml, 4 h
Description: Figure 1. Antigen pulsing of BMDCs activates IRE1α. (A) BMDCs were pulsed with ovalbumin (starting at 62.5 μg/ml and sequentially doubled) and analyzed by immunoblot (IB) for the indicated markers. (B) BMDCs were pulsed with ovalbumin (starting at 500 μg/ml and sequentially halved) or […] (1 μM), or stimulated with tunicamycin (1 μg/ml) or poly-I:C (25 μg/ml) for 4 h, and analyzed by IB. (C) BMDCs were pulsed with ovalbumin (500 μg/ml) for indicated time points and analyzed by IB. (D) BMDCs were pulsed for 4 h with ovalbumin or lysates derived from the indicated cell lines (500 μg/ml protein) and analyzed by IB. […] (F) Upon removal from bone marrow, total bone marrow cells were transfected with non-targeting control (NTC) or TAP1-targeting gRNAs, along with CRISPR/Cas9 delivery constructs. Cells were then subjected to standard BMDC-differentiation protocol, pulsed with ovalbumin (500 μg/ml) for 4 h, and analyzed by IB. All IB images are representative of at least two similar experiments, and molecular weights represent kD. Source data are available for this figure: SourceData F1.
Cells were lysed in PBS solution supplemented with 1X radioimmunoprecipitation assay buffer (Millipore) and 2X Halt protease-phosphatase inhibitor cocktail (Thermo Fisher Scientific). […]

[1] = system: IRE1α in mouse embryonic fibroblasts (MEFs); experiment: IRE1α activation in MEFs (immunoblot); type: cell-based; settings: ovalbumin, 4 h
Description: Figure S1. Antigen pulsing of BMDCs activates IRE1α. (A) BMDCs were treated with MG132 (5 μM) or ovalbumin (500 μg/ml) for indicated time points and analyzed by IB. (B) BMDCs were pulsed with ovalbumin (500 μg/ml) and G9668 (3 μM) for indicated time periods and analyzed by IB. (C) Molecular structure, potency, and kinase selectivity of G9668. (D) Schematic representation of G9668 interaction with 220 kinases at 1 μM. Size and color of circles represent interaction strength. Analysis was conducted by KinomeScan. (E) BMDCs were pulsed for 4 h with APC-tagged ovalbumin or soluble CD4-Fc protein (500 μg/ml) with amiloride (10 μM); uptake of protein was assayed by flow cytometry (n = 3). (F) WT or MyD88 KO Flt3L-derived BMDCs were pulsed with ovalbumin (500 μg/ml) or soluble CD4-Fc protein (500 μg/ml), or treated with LPS (10 μg/ml) for 4 h and analyzed by IB. (G) MEFs and BMDCs were pulsed with ovalbumin or treated with Tg (100 nM) for 4 h and analyzed by IB. Images in A, B, F, and G represent at least two similar experiments, and molecular weights represent kD; E bar graphs represent mean ± SD from three independent biological repeats. Analysis for E was performed using unpaired, two-tailed t test; *, P ≤ 0.05; **, P ≤ 0.01. Source data are available for this figure: SourceData FS1. […]

B1: ovalbumin: classical protein antigen ovalbumin (Sigma-Aldrich) (protein)
chain: MGSIGAASMEFCFDVFKELKVHHANENIFYCPIAIMSALAMVYLGAKDSTRTQINKVVRFDKLPGFGDSIEAQCGTSVNVHSSLRDILNQITKPNDVYSFSLASRLYAEERYPILPEYLQCVKELYRGGLEPINFQTAADQARELINSWVESQTNGIIRNVLQPSSVDSQTAMVLVNAIVFKGLWEKAFKDEDTQAMPFRVTEQESKPVQMMYQIGLFRVASMASEKMKILELPFASGTMSMLVLLPDEVSGLEQLESIINFEKLTEWTSSNVMEERKIKVYLPRMKMEEKYNLTSVLMAMGITDVFSSSANLSGISSAESLKISQAVHAAHAEINEAGREVVGSAEAGVDAASVSEEFRADHPFLFCIKHIATNAVLFFGRCVSP
IRE1α stimulation upon TAP1 disruption (IRE1α in TAP1 KO BMDCs): prevented IRE1α stimulation | IRE1α activation, MEFs [1]: did not display detectable IRE1α activation
